The supplement of paper PMC7125110
± gives the standard error. Variants at the floor of the assay were thinned out.

B1: glmS ribozyme (parent)
chain: AUAAAAGCGCCAGAACUACAGAAAUGUAGUUGACGAGGAGGAGGUUUAUCGAAUUUUCGGCGGAUGCCUCCAAA

Variants of: B1
Experiment: self-cleavage kobs at 10000 uM GlcN6P; higher = faster cleavage; RNA array
Conditions: with glucosamine-6-phosphate
Procedure, shortened: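 The measurements used barcoded ribozyme variants on sequenced MiSeq chips, transcribed in situ by E. coli RNA polymerase and tracked at 37 °C with a hybridised Cy3 probe. Glucosamine-6-phosphate, 40 μM to 10 mM in HEPES/KCl/Mg(OAc)2 buffer, was flowed in while tiles were imaged over ~14 h. Baseline-normalised signals, also normalised to non-cleaving reference variants, gave per-tile medians that were fit to one- or two-exponential decays for kobs. kcat and KM resulted from weighted Michaelis–Menten fits across concentrations.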
AUAAAAGCGCCAGAACUACAGAAAUGUAGUUGACGAGGAGGAGAUUUAUCGAAUUAUCGCCGGAUGCAUCCAAA was tested, and the “self-cleavage kobs at 10000 uM GlcN6P” value was less than 1e-05 s⁻¹.
For AUAAAAGCGCCAGAACUACAGAAAUGUAGUUGACGAGGAGCAGGUUUAUCGAAUUAUCCGCGGAUGCCUCCAAA, the “self-cleavage kobs at 10000 uM GlcN6P” value was less than 1e-05 s⁻¹.
In the case of AUAAAAGCGCCAGAACUACAGAAAUGUAGUAGCCGAGGAGGAGGUUUAUCGAAUUUUCGGCGGAUGCCUCCAAA, the “self-cleavage kobs at 10000 uM GlcN6P” value is reported as 4.61e-05 ± 1.8e-05 s⁻¹.
With AUAAAAGCGCCUGAACUACAGAAAUGUAGUUGACGACGAGGAGGAUUUUCGAAUUUUCGGCGGAUGCUUCCAAA the “self-cleavage kobs at 10000 uM GlcN6P” value was less than 1e-05 s⁻¹.
For AUAAAAGCGCCAGAACUACAGAAAUGUAGUUGACGAGGAGGACGUUUAUCGAAUUUUGGGCGGAUGCCUCAAAA, the “self-cleavage kobs at 10000 uM GlcN6P” value was less than 1e-05 s⁻¹.
With AUAAACGCGCCAGAACUACAGAAAUGUAGUUGACGAGGAGGAGGUUUAACGAAUUUUCGGCGGAUGCCUCCAAA the “self-cleavage kobs at 10000 uM GlcN6P” value was less than 1e-05 s⁻¹.
For AUAAAAACGCCAGAACUACAGAAAUGUAGUUGACAGGGAGGAGGUUUAUCGAAUUUUCGGCGGAUGCCUCCAAA, the “self-cleavage kobs at 10000 uM GlcN6P” value was less than 1e-05 s⁻¹.
AUAAAAGCGCCAGAACUACAGAAAUGUAGUUGACAAGGAGGACGUUUAUCGAAUUUUCGGCGGAUGGGUCCAAA was tested, and the “self-cleavage kobs at 10000 uM GlcN6P” value was 6.9e-05 ± 2e-05 s⁻¹.
With AUAAAAGCGCCAAAACUACAGAAAUGUAGUUGACGAGGAGGAGUUUUAUCGAAUUUUCGGCUGAUGCCUCGAAA the “self-cleavage kobs at 10000 uM GlcN6P” value was less than 1e-05 s⁻¹.
In the case of AUAAAAGCGCCAGAACUACAGAAAUGUAGUUGAUGAGGAGGAGGUUUAUCGAAUUUUCGGCGCAUGCGUCCAAA, the “self-cleavage kobs at 10000 uM GlcN6P” value is reported as less than 1e-05 s⁻¹.
In the case of AUAAAAGCGCCAGUACUACAGAAAUGUAGUUGACAAGGAGGAGGUUUGUCGAACUUUCGGCGGAUGCCUGCAAA, the “self-cleavage kobs at 10000 uM GlcN6P” value is reported as less than 1e-05 s⁻¹.
AUAAAAGAGCCAGAACUACAGAAAUGUACUUGACGAGGAGGAGGUAUAUCGAAUUUUCGGCGGAUGCCUCCAAA was tested, and the “self-cleavage kobs at 10000 uM GlcN6P” value was less than 1e-05 s⁻¹.
AUAAAAGCGCCAGAACUACAGAAAUGUAGUUGACGAGGCGGAGGUUUAUCCAAUUUUCCGCGGAUGCCUCCAAA was tested, and the “self-cleavage kobs at 10000 uM GlcN6P” value was less than 1e-05 s⁻¹.
For AUAAAAUCGCCAGAACUACAGAAAUGUAGUUGACGAGGAGGAGGUUAAUCGAAUUUGCGGCGGAUGCCUCCAAA, the “self-cleavage kobs at 10000 uM GlcN6P” value was less than 1e-05 s⁻¹.
AUAAAAGCGCCACAACUACAGAAAUGUAGUUGACGAGUAGGAGGUUUUUAGAAUUUUCGGCGGAUGCCUCCAAA was tested, and the “self-cleavage kobs at 10000 uM GlcN6P” value was less than 1e-05 s⁻¹.
AUAAAAGCGGCAGAAGUACAGAAAUGUAGUUGACGAGGAGGAGGUUUAUCGAGUUUUCGGCGGAUGCUUCCAAA was tested, and the “self-cleavage kobs at 10000 uM GlcN6P” value was less than 1e-05 s⁻¹.
With AUAAAAGCGCCAGAACUACAGACAUGUAGUUGACGAGGAGGAGGUUUAUCGAAUUUUCGGCGGAUGCAUCCAAA the “self-cleavage kobs at 10000 uM GlcN6P” value was 5.82e-05 ± 2.4e-05 s⁻¹.
In the case of AUAAAAGCGCCAGAACUACAGAAAUGUAGUUGACGAAGAGGAGGUUUAUGGAAUUUUCGGCGGAUGCCUCCAAA, the “self-cleavage kobs at 10000 uM GlcN6P” value is reported as less than 1e-05 s⁻¹.
AUAAAAGCGCCAGCACUACAGAAAUGUAGUUGACGAGGAGGAGGCUUAUCGAAUUUUCGGCGGGUACCUCCAAA was tested, and the “self-cleavage kobs at 10000 uM GlcN6P” value was 0.000542 ± 9.2e-05 s⁻¹.
For AUAAAAGCGCCAGAACUACAGAAAUGUAGGUAACGAGGAGGAGGUUUAUCGAAUUUUCGGCGGAUGCCUCUAAA, the “self-cleavage kobs at 10000 uM GlcN6P” value was 0.00359 ± 0.0005 s⁻¹.
For AUAAAAGCGCCAGAACUACAGAAAUGUAGUUGACGAGGAGGAGGUUUAUCGAAGUUUCGGCGGAUUCUUCCAAA, the “self-cleavage kobs at 10000 uM GlcN6P” value was 0.000154 ± 3.1e-05 s⁻¹.
With AUAAAAGCGCCAGUACUACAGAAAUGUAGUCGACGAGGAGGAGGUCUAUCGAAUUUUCGGCGGAUGCCUCCAAA the “self-cleavage kobs at 10000 uM GlcN6P” value was 0.00011 ± 1.7e-05 s⁻¹.
AUAAAAGCGCCAGAACUACAGAAAUGUAGCUGACGAGGAGAAGGUUUAUCGAACUUUCGGCGGAUGCCUCCAAA was tested, and the “self-cleavage kobs at 10000 uM GlcN6P” value was less than 1e-05 s⁻¹.
With AUAAAAGCGCCAGAAUUACAGAAAUGUAUUUGACGAGGAGGAGGUUUAUCGAAUUUUCGGCGGAUGGCUCCAAA the “self-cleavage kobs at 10000 uM GlcN6P” value was 0.000292 ± 8.5e-05 s⁻¹.
AUAAAAGCGCCAGAACUACAGAAAUGUAGUUGACGCGUAGGAGGUUCAUCCAAUUUUCGGCGGAUGCCUCCAAA was tested, and the “self-cleavage kobs at 10000 uM GlcN6P” value was less than 1e-05 s⁻¹.
With AUAAAAGCGCCAGAACUACAGAAAUGUAGUUGACGAGGAUGAGGUUCAUCAAAUUUUCUGCGGAUGCCUCUAAA the “self-cleavage kobs at 10000 uM GlcN6P” value was less than 1e-05 s⁻¹.
With AUAAAAGCGCCAGAACUACAGAAAUGUAGUUGACCAGGCGUAGGUUUAGCGAAUUUUCGGCGGAUGCCUCCAAA the “self-cleavage kobs at 10000 uM GlcN6P” value was less than 1e-05 s⁻¹.
In the case of AUAAAAGCGUCAGAACUACAGAAAUGUAGUUGACGAGGAGGAGGUUUAGCGAAUUUUCGGUGGAUGCCUCCAAA, the “self-cleavage kobs at 10000 uM GlcN6P” value is reported as less than 1e-05 s⁻¹.
With AUAAAAGCGCCAGAACUACAGAAAUGUAGUUGACGAGGAGGGGGUUUAUCGAAUUUUUGGCGGAUGCCUCCAAA the “self-cleavage kobs at 10000 uM GlcN6P” value was 9.52e-05 ± 1.4e-05 s⁻¹.
For AUAAAAGCGCCAGAACUACAGAAAUGUAGUUGACGAGUAGGAGGUUUAUCGAAUUUUCGGCGGUUGCCUCUAAA, the “self-cleavage kobs at 10000 uM GlcN6P” value was less than 1e-05 s⁻¹.
For AUAAAAGCGCCGGAACUACAGAAAUGUAGUUGACGAGGAGGAGGUUUAUCUAAUUUUGGGCGGAUGCCUCCAAA, the “self-cleavage kobs at 10000 uM GlcN6P” value was less than 1e-05 s⁻¹.
AUAAAAGCGCCAUAACUACAGAAAUGUAGUUGACGAGGAGGAGCUUUAUCGAAUUCUCGGCGGAUGCCUCCAAA was tested, and the “self-cleavage kobs at 10000 uM GlcN6P” value was less than 1e-05 s⁻¹.
For AUAAAAGCGCCAGUGCUACAGAAAUGUAGUUGACGAGGAGUAGGUUUAUCGAAUUUUCGGCGGAUGCCUCCAAA, the “self-cleavage kobs at 10000 uM GlcN6P” value was 0.000237 ± 5.3e-05 s⁻¹.
With AUAAAAGCGCCUGAACUACAGAAAUGUAGGUGACGUGGAGUAGGUUUAUCGUAUUUUCGGCGGAUGCCUCCAAA the “self-cleavage kobs at 10000 uM GlcN6P” value was less than 1e-05 s⁻¹.
AUAAAAGCGCCAGCACUACAGAAAUGUAGUUGACGAAGAGGAGGAUUAAAGAAUUUUUGGCGGAUGCCUCCAAA was tested, and the “self-cleavage kobs at 10000 uM GlcN6P” value was less than 1e-05 s⁻¹.
In the case of AUAAAAGCGCCAGAACUACAGAAAUGUAGAUGACGAGGAGGAGAUUUAUCGAAUUUUCGGCGGAUGCGUCCAAA, the “self-cleavage kobs at 10000 uM GlcN6P” value is reported as less than 1e-05 s⁻¹.
For AUAAAAGCGCUAGAACUACAGAAAUGUAGUUGACGAGGAGGAGGUUUAUCGAGUUUUCGACGGAUGCCUCCAAA, the “self-cleavage kobs at 10000 uM GlcN6P” value was less than 1e-05 s⁻¹.
